Reference: patent US20150353909

What was measured:
[1] = target: K48-tetraubiquitin chains, P0CG48
[2] = target: K63-tetraubiquitin chains, P0CG48
[3] = target: purified recombinant linear UB tetramers
[4] = target: purified recombinant linear UB trimers
[5] = target: purified recombinant linear UB dimers
[6] = target: T1, HA3-RUB-GST, Q9SHE7
T1 chain: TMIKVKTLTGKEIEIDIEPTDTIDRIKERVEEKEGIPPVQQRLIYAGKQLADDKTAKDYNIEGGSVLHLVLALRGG

[7] = target: HA3-UBQ-GST [GST: P08515]
[8] = target: HA3-SUMO-GST, P55852

K63-tetraubiquitin chains, P0CG48, sequence (P0CG48 whole entry, looked up): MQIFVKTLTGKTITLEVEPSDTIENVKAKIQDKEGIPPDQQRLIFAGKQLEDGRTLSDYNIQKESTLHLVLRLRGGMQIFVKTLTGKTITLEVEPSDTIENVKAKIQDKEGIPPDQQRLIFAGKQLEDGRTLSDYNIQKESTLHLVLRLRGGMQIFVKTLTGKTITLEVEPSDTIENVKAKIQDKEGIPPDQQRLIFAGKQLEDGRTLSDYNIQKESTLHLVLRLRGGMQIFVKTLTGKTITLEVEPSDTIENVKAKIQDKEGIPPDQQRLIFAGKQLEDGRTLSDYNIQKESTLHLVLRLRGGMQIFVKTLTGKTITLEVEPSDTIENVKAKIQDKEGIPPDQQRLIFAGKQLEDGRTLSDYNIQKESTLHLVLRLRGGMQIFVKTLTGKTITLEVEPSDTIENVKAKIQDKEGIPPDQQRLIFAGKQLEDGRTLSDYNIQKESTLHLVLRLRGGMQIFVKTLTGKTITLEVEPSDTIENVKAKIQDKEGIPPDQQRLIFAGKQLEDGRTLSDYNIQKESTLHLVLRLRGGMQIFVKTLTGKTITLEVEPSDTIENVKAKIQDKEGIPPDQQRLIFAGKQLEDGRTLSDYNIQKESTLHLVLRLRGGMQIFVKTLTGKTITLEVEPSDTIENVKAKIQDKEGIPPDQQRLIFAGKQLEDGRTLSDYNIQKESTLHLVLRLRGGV
K48-tetraubiquitin chains, P0CG48, sequence (P0CG48 whole entry, looked up): as above

B1: OTU10-NΔ1-125 (protein)
chain: EWIGNDNDQDGRSDDSVNVFSCSSPSDTDEYVYSWESDQCDADGEFGRRLNQMVPIPYIPKINGEIPPEEEAVSDHERLRNRLEMFDFTEVKVPGDGNCQFRALADQLYKTADRHKHVRRQIVKQLKSRPDSYQGYVPMDFSDYLRKMSRSGEWGDHVTLQAAADAYRVKIVVLTSFKDTCYIEILPTSQESKGVIFLSFWAEVHYNAIYLNRDTSETELQRKRKWWRFGN
cleavage [1]: comparable to that catalyzed by the corresponding wild-type proteins | cleavage [2]: comparable to that catalyzed by the corresponding wild-type proteins

B2: OTU4c-NΔ (protein)
chain: SGLSRRHYTGFRVSVSNRPSSWHDKGLFGFAYTGVIVSLLVCYSSTSQSAYADSSRDKDANNVHHHSSDGKFHNGKRVYTDYSIIGIPGDGRCLFRSVAHGFCLRSGKLAPGEKMQRELADELRTRVADEFIQRRQETEWFVEGDFDTYVRQIRDPHVWGGEPELFMASHVLQMPITVYMKDDKAGGLISIAEYGQEYGKDDPIRVLYHGFGHYDALLLHESKASIPKSKL
catalytic activities [3]: did not modify | catalytic activities [4]: did not modify | catalytic activities [1]: did not modify | catalytic activities [5]: did not modify | catalytic activities [6]: did not modify | catalytic activities [2]: did not modify | catalytic activities [7]: did not modify

B3: OTU10-NΔ1-173 (protein)
chain: RLNQMVPIPYIPKINGEIPPEEEAVSDHERLRNRLEMFDFTEVKVPGDGNCQFRALADQLYKTADRHKHVRRQIVKQLKSRPDSYQGYVPMDFSDYLRKMSRSGEWGDHVTLQAAADAYRVKIVVLTSFKDTCYIEILPTSQESKGVIFLSFWAEVHYNAIYLNRDTSETELQRKRKWWRFGN
cleavage [1]: comparable to that catalyzed by the corresponding wild-type proteins | cleavage [2]: comparable to that catalyzed by the corresponding wild-type proteins

B4: GST-OTU4c-C136S (protein)
chain: MMICYSPITTCSRNAISIKRHLGSRLYGVVAHGSSKFSCYSLLSGLSRRHYTGFRVSVSNRPSSWHDKGLFGFAYTGVIVSLLVCYSSTSQSAYADSSRDKDANNVHHHSSDGKFHNGKRVYTDYSIIGIPGDGRSLFRSVAHGFCLRSGKLAPGEKMQRELADELRTRVADEFIQRRQETEWFVEGDFDTYVRQIRDPHVWGGEPELFMASHVLQMPITVYMKDDKAGGLISIAEYGQEYGKDDPIRVLYHGFGHYDALLLHESKASIPKSKL
linear UB polymer cleavage activity [3]: generally abolished | linear UB polymer cleavage activity [4]: generally abolished | cleavage activity [1]: completely abolished | linear UB polymer cleavage activity [5]: generally abolished | fusion protein cleavage activity [6]: generally abolished | cleavage activity [2]: completely abolished | fusion protein cleavage activity [7]: generally abolished

B5: GST-OTU4c (protein)
chain: MMICYSPITTCSRNAISIKRHLGSRLYGVVAHGSSKFSCYSLLSGLSRRHYTGFRVSVSNRPSSWHDKGLFGFAYTGVIVSLLVCYSSTSQSAYADSSRDKDANNVHHHSSDGKFHNGKRVYTDYSIIGIPGDGRCLFRSVAHGFCLRSGKLAPGEKMQRELADELRTRVADEFIQRRQETEWFVEGDFDTYVRQIRDPHVWGGEPELFMASHVLQMPITVYMKDDKAGGLISIAEYGQEYGKDDPIRVLYHGFGHYDALLLHESKASIPKSKL
in vitro deubiquitylation activity [3]: ++ | in vitro deubiquitylation activity [8]: - | in vitro deubiquitylation activity [4]: ++ | in vitro deubiquitylation activity [1]: +++ | in vitro deubiquitylation activity [5]: - | in vitro deubiquitylation activity [6]: + | in vitro deubiquitylation activity [2]: +++ | in vitro deubiquitylation activity [7]: ++

B6: OTU9-NΔ 1-100 (protein)
chain: GQENQGEAIDITQESDILHNHNGNMEDKNVARIRFEGGQSSPSRDDDSVCSVEIEEESWSEVGKRLNQMIPIAHVPKINGELPSEDEQISDHERLFQRLQLYGLVENKIEGDGNCQFRSLSDQLYRSPEHHNFVREQVVNQLAYNREIYEGYVPMAYNDYLKAMKRNGEWGDHVTLQAAADLFGVRMFVITSFKDTCYIEILPHFQKSNRLICLSFWAEVHYNSIYPEGELPIPEGKKKKKYWVF
cleavage [1]: comparable to that catalyzed by the corresponding wild-type proteins | cleavage [2]: comparable to that catalyzed by the corresponding wild-type proteins

B7: His-tagged OTU2 (protein)
chain: MEGIIVRRVIPSDNSCLFNAIGYVMDKDKNKAPELRQVIAAAVASNKEKYNEAFLGKLNEEYCAWILNPDKWGGAIELSILADYYGREIAAYDIQTSRCDLYGQTRNYDERVMLIYDGLHYDALALSPFEGAEEDFDMTIYPVGKDRSIGSIEGLALNLVKDQQRKRSYTDTANFTLRCGVCQIGVIGQKEAVEHAQATGHVNFQEYK
in vitro deubiquitylation activity [3]: - | in vitro deubiquitylation activity [8]: - | in vitro deubiquitylation activity [4]: - | in vitro deubiquitylation activity [1]: + | in vitro deubiquitylation activity [5]: - | in vitro deubiquitylation activity [6]: - | in vitro deubiquitylation activity [2]: + | in vitro deubiquitylation activity [7]: -

B8: His-tagged OTU3 (protein)
chain: MELKSSSNNNILEQLRNGFARFELVSSPTASVSDSISSTSLPASFISTTKGNSYVFFARINSSMNRSPAAKKVEKYAVDRVKGDGRCLFRALVKGMAFNKGITLNPQRERDDADELRMAVKEVICNDPKEREKYKEALVAITVDESLKRFCQRIGRHDFWGGESELLVLSKLCKQPIIVYIPEHEHGRGGGYGPGFIPIQEYGSEFRGGWGKGKTNKNVVRLLYSGRNHYDLLR
in vitro deubiquitylation activity [3]: + | in vitro deubiquitylation activity [8]: - | in vitro deubiquitylation activity [4]: + | in vitro deubiquitylation activity [1]: ++ | in vitro deubiquitylation activity [5]: - | in vitro deubiquitylation activity [6]: + | in vitro deubiquitylation activity [2]: +++ | in vitro deubiquitylation activity [7]: ++

B9: OTU7a-C48S (protein)
chain: MAKTKQQKSKPKKQPHQKQGKDCDLSQFRAQLDALGLKIIQVTADGNSFFRAIADQLEGNEDEHNKYRNMIVLYIVKNREMFEPFIEDDVPFEDYCKTMDDDGTWAGNMELQAASLVTRSNICIHRNMSPRWYIRNFEDTRTRMIHLSYHDGEHYNSVRSKEDACGGPARPVVIEADAKVSAASKQAKATESKSKNKADKCHVNAGAIKVVMSGSCCDNTEKAEQVLLQVNGDVDAAIEFLIADQGMESLTENDTETASASDTINPKHASDSPMENTEQAREELIEEESASGNNSETVQAKCTTQTDDKKIPRNKTCPCGSKKKYKSCCGTATGRSSVKLLVSQTMESKKGRKNLRRGTSNEVEANAPDVGALCI
cleavage activity [1]: completely abolished | cleavage activity [2]: completely abolished

B10: OTU1-C92S (protein)
chain: MQNQIDMVKDEAEVAASISAIKGEEWGNCSSVEDQPSFQEEEAAKVPYVGDKEPLSSLAAEYQSGSPILLEKIKILDSQYIGIRRTRGDGNSFFRSFMFSYLEHILESQDRAEVDRIKVNVEKCRKTLQNLGYTDFTFEDFFALFLEQLDDILQGTEESISYDELVNRSRDQSVSDYIVMFFRFVTAGDIRTRADFFEPFITGLSNATVDQFCKSSVEPMGEESDHIHITALSDALGVAIRVVYLDRSSCDSGGVTVNHHDFVPVGITNEKDEEASAPFITLLYRPGHYDILYPKPSCKVSDNVGK
linear UB polymer cleavage activity [3]: generally abolished | linear UB polymer cleavage activity [4]: generally abolished | cleavage activity [1]: completely abolished | linear UB polymer cleavage activity [5]: generally abolished | cleavage activity [2]: completely abolished

B11: OTU1-D89E (protein)
chain: MQNQIDMVKDEAEVAASISAIKGEEWGNCSSVEDQPSFQEEEAAKVPYVGDKEPLSSLAAEYQSGSPILLEKIKILDSQYIGIRRTRGEGNCFFRSFMFSYLEHILESQDRAEVDRIKVNVEKCRKTLQNLGYTDFTFEDFFALFLEQLDDILQGTEESISYDELVNRSRDQSVSDYIVMFFRFVTAGDIRTRADFFEPFITGLSNATVDQFCKSSVEPMGEESDHIHITALSDALGVAIRVVYLDRSSCDSGGVTVNHHDFVPVGITNEKDEEASAPFITLLYRPGHYDILYPKPSCKVSDNVGK
linear UB polymer cleavage activity [3]: to a similar extent as the wild-type protein | linear UB polymer cleavage activity [4]: to a similar extent as the wild-type protein | cleavage activity [1]: completely abolished | linear UB polymer cleavage activity [5]: to a similar extent as the wild-type protein | cleavage activity [2]: completely abolished

B12: OTU1-H288R (protein)
chain: MQNQIDMVKDEAEVAASISAIKGEEWGNCSSVEDQPSFQEEEAAKVPYVGDKEPLSSLAAEYQSGSPILLEKIKILDSQYIGIRRTRGDGNCFFRSFMFSYLEHILESQDRAEVDRIKVNVEKCRKTLQNLGYTDFTFEDFFALFLEQLDDILQGTEESISYDELVNRSRDQSVSDYIVMFFRFVTAGDIRTRADFFEPFITGLSNATVDQFCKSSVEPMGEESDHIHITALSDALGVAIRVVYLDRSSCDSGGVTVNHHDFVPVGITNEKDEEASAPFITLLYRPGRYDILYPKPSCKVSDNVGK
linear UB polymer cleavage activity [3]: generally abolished | linear UB polymer cleavage activity [4]: generally abolished | cleavage activity [1]: completely abolished | linear UB polymer cleavage activity [5]: generally abolished | cleavage activity [2]: completely abolished

B13: OTU9-NΔ1-172 (protein)
chain: AHVPKINGELPSEDEQISDHERLFQRLQLYGLVENKIEGDGNCQFRSLSDQLYRSPEHHNFVREQVVNQLAYNREIYEGYVPMAYNDYLKAMKRNGEWGDHVTLQAAADLFGVRMFVITSFKDTCYIEILPHFQKSNRLICLSFWAEVHYNSIYPEGELPIPEGKKKKKYWVF
cleavage [1]: comparable to that catalyzed by the corresponding wild-type proteins | cleavage [2]: comparable to that catalyzed by the corresponding wild-type proteins
